Test: Activity with ONPG, release of o-nitrophenol (ONP) at 405 nm
Format: biochemical
Conditions: for Time (min) to increase A405 by: 0.025 / Time (min) to increase A405 by: 0.05 / Time (min) to increase A405 by: 0.1 / Time (min) to increase A405 by: 0.2 / Time (min) to increase A405 by: 0.4 / Time (min) to increase A405 by: 0.8 / Time (min) to increase A405 by: 1.6 / Time (min) to increase A405 by: 3.2: Table 8, ONPG 5 mg/ml
Protocol: The activity of HIGAL and MTGAL with ONPG was tested by mixing 200 microliters (normally 5.5 mg/ml) ONPG in 50 mM sodium acetate, 1 mM CaCl2, 0.01% Triton X-100, pH 6.5 with 25 microliters galactanase (normally 1 mg/ml) in the well of a microtiter plate. Release of o-nitrophenol (ONP) was measured at room temperature at 405 nm every 10 seconds normally for 30 min on a SpectraMaxPlus (Molecular Devices). Effects on the observed release of ONP was studied with varied enzyme concentration, ONPG concentration and with addition of galactose (Gal), beta-1,4-galactobiose (Gal2) (Megazyme), beta-1,4-galactotriose (Gal3), beta-1,4-galactotetraose (Gal4), glucose (Glu), arabinose (Ara), galacturonic acid (GalA), maltose (Mal) or maltotriose (Mal3).
In Tables 8-11 below, incubation times required to increase the observed absorbance at 405 nm by given amounts are listed. Cells marked ‘n.r.’ indicate that the increase in absorbance was not reached in the experiment. In general, the initial increase in absorbance at 405 nm was very slow, but after a lag phase the rate of ONP release often increased drastically—often approximately exponentially. The most likely explanation for the observed kinetics is that ONPG reacts with the enzyme to give an enzyme-galactosyl intermediate which hydrolyses very slowly. Instead, the Gal of the intermediate is released by transglycosylation, initially with ONPG or added sugar as acceptor. In cases where the rate of ONP release increases, these transglycosylation products are even better acceptors than the initial ones. […] More likely, Gal inhibits the subsequent transglycosylation, which requires binding of ONPG to the +1 and +2 subsites, e.g., by binding to the +2 subsite. With 50 mg/ml Gal added (results not shown) release of ONP was even slower with only insignificant increase of absorbance at 405 nm in 30 min.

B1: MTGAL: GH Family 53 galactanase from Myceliophthora thermophila, SEQ ID NO: 1 (wild type parent) (protein, listed as Myceliophthora thermophila)
chain: ALTYRGVDWSSVVVEERAGVSYKNTNGNAQPLENILAANGVNTVRQRVWVNPADGNYNLDYNIAIAKRAKAAGLGVYIDFHYSDTWADPAHQTMPAGWPSDIDNLSWKLYNYTLDAANKLQNAGIQPTIVSIGNEIRAGLLWPTGRTENWANIARLLHSAAWGIKDSSLSPKPKIMIHLDNGWDWGTQNWWYTNVLKQGTLELSDFDMMGVSFYPFYSSSATLSALKSSLDNMAKTWNKEIAVVETNWPISCPNPRYSFPSDVKNIPFSPEGQTTFITNVANIVSSVSRGVGLFYWEPAWIHNANLGSSCADNTMFSQSGQALSSLSVFQRI
modifications: mat_peptide (1)..()
Slowing of ONP release by addition of Gal (Gal 5 mg/ml): about a factor of two
Time (min) to increase A405 by: 0.025 (enzyme 28 μg/ml, no sugar): 40.4 min
Time (min) to increase A405 by: 0.05 (enzyme 28 μg/ml, no sugar): n.r.
Time (min) to increase A405 by: 0.1 (enzyme 28 μg/ml, no sugar): n.r.
Time (min) to increase A405 by: 0.2 (enzyme 28 μg/ml, no sugar): n.r.
Time (min) to increase A405 by: 0.4 (enzyme 28 μg/ml, no sugar): n.r.
Time (min) to increase A405 by: 0.8 (enzyme 28 μg/ml, no sugar): n.r.
Time (min) to increase A405 by: 1.6 (enzyme 28 μg/ml, no sugar): n.r.
Time (min) to increase A405 by: 3.2 (enzyme 28 μg/ml, no sugar): n.r.
Time (min) to increase A405 by: 0.025 (enzyme 55 μg/ml, Gal 5 mg/ml): 40.2 min
Time (min) to increase A405 by: 0.05 (enzyme 55 μg/ml, Gal 5 mg/ml): n.r.
Time (min) to increase A405 by: 0.1 (enzyme 55 μg/ml, Gal 5 mg/ml): n.r.
Time (min) to increase A405 by: 0.2 (enzyme 55 μg/ml, Gal 5 mg/ml): n.r.
Time (min) to increase A405 by: 0.4 (enzyme 55 μg/ml, Gal 5 mg/ml): n.r.
Time (min) to increase A405 by: 0.8 (enzyme 55 μg/ml, Gal 5 mg/ml): n.r.
Time (min) to increase A405 by: 1.6 (enzyme 55 μg/ml, Gal 5 mg/ml): n.r.
Time (min) to increase A405 by: 3.2 (enzyme 55 μg/ml, Gal 5 mg/ml): n.r.
Time (min) to increase A405 by: 0.025 (enzyme 55 μg/ml, no sugar): 29.9 min
Time (min) to increase A405 by: 0.05 (enzyme 55 μg/ml, no sugar): 42.5 min
Time (min) to increase A405 by: 0.1 (enzyme 55 μg/ml, no sugar): 54.5 min
Time (min) to increase A405 by: 0.2 (enzyme 55 μg/ml, no sugar): n.r.
Time (min) to increase A405 by: 0.4 (enzyme 55 μg/ml, no sugar): n.r.
Time (min) to increase A405 by: 0.8 (enzyme 55 μg/ml, no sugar): n.r.
Time (min) to increase A405 by: 1.6 (enzyme 55 μg/ml, no sugar): n.r.
Time (min) to increase A405 by: 3.2 (enzyme 55 μg/ml, no sugar): n.r.
Time (min) to increase A405 by: 0.025 (enzyme 110 μg/ml, Gal 5 mg/ml): 26.9 min
Time (min) to increase A405 by: 0.05 (enzyme 110 μg/ml, Gal 5 mg/ml): 44.5 min
Time (min) to increase A405 by: 0.1 (enzyme 110 μg/ml, Gal 5 mg/ml): n.r.
Time (min) to increase A405 by: 0.2 (enzyme 110 μg/ml, Gal 5 mg/ml): n.r.
Time (min) to increase A405 by: 0.4 (enzyme 110 μg/ml, Gal 5 mg/ml): n.r.
Time (min) to increase A405 by: 0.8 (enzyme 110 μg/ml, Gal 5 mg/ml): n.r.
Time (min) to increase A405 by: 1.6 (enzyme 110 μg/ml, Gal 5 mg/ml): n.r.
Time (min) to increase A405 by: 3.2 (enzyme 110 μg/ml, Gal 5 mg/ml): n.r.
Time (min) to increase A405 by: 0.025 (enzyme 110 μg/ml, no sugar): 14.0 min
Time (min) to increase A405 by: 0.05 (enzyme 110 μg/ml, no sugar): 20.5 min
Time (min) to increase A405 by: 0.1 (enzyme 110 μg/ml, no sugar): 26.4 min
Time (min) to increase A405 by: 0.2 (enzyme 110 μg/ml, no sugar): 31.4 min
Time (min) to increase A405 by: 0.4 (enzyme 110 μg/ml, no sugar): 34.5 min
Time (min) to increase A405 by: 0.8 (enzyme 110 μg/ml, no sugar): 39.2 min
Time (min) to increase A405 by: 1.6 (enzyme 110 μg/ml, no sugar): 43.9 min
Time (min) to increase A405 by: 3.2 (enzyme 110 μg/ml, no sugar): 46.7 min

From patent US8367390B2, “Galactanase variants” (Novozymes A/S, priority 2002, dated 2013)
